# Patent publication US20070077617
# Positions count from the first letter of the chain named. Numbers in names are those of the source.
# B1: OmpT protease variant OmpT D97M (protein)
# chain: STETLSFTPDNINADISLGTLSGKTKERVYLAEEGGRKVSQLDWKFNNAAIIKGAINWDLMPQISIGAAGWTTLGSRGGNMVDQDWMDSSNPGTWTMESRHPDTQLNYANEFDLNIKGWLLNEPNYRLGLMAGYQESRYSFTARGGSYIYSSEEGFRDDIGSFPNGERAIGYKQRFKMPYIGLTGSYRYEDFELGGTFKYSGWVESSDNDEHYDPGKRITYRSKVKDQNYYSVAVNAGYYVTPNAKVYVEGAWNRVTNKKGNTSLYDHNNNTSDYSKNGAGIENYNFITTAGLKYTF
# B2: OmpT protease variant OmpT D97H (protein)
# chain: B1 chain with M97H
# B3: OmpT protease variant OmpT D97L (protein)
# chain: B1 chain with M97L
# Assays:
# fusion protein PRMT = conditions: scale: relative
# Chain of fusion protein PRMT (chain, as listed by the source): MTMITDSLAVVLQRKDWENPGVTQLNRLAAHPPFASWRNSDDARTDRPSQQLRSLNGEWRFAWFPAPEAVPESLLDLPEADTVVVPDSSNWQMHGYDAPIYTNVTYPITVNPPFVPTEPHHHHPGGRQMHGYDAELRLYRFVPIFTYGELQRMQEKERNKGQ
# [1] = molecular target: motilin fusion protein PMT6D
# Chain of motilin fusion protein PMT6D (chain, as listed by the source): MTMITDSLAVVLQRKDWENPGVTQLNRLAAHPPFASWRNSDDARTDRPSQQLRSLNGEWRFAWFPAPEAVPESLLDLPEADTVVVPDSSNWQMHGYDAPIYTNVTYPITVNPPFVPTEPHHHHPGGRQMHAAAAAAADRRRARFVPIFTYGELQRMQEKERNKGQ
# [2] = molecular target: motilin fusion protein PMT7D
# Chain of motilin fusion protein PMT7D (chain, as listed by the source): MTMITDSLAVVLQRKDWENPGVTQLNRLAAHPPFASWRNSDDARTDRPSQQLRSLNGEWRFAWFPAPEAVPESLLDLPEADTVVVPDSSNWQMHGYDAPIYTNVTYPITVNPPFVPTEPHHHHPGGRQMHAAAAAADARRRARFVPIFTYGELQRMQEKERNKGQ
# [3] = molecular target: human calcitonin precursor fusion protein PCT
# Chain of human calcitonin precursor fusion protein PCT (chain, as listed by the source): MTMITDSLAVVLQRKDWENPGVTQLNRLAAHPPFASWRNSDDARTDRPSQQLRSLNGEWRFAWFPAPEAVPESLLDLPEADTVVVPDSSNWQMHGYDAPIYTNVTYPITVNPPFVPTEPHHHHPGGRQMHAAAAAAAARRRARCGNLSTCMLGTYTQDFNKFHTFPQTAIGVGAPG
# [4] = molecular target: human adrenocorticotropic hormone(1-24) fusion protein PAC
# Chain of human adrenocorticotropic hormone(1-24) fusion protein PAC (chain, as listed by the source): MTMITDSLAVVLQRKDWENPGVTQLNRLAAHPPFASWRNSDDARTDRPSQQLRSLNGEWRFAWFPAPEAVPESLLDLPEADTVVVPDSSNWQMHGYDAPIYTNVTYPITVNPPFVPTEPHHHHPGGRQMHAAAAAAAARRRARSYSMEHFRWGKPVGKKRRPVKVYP
# Chain of fusion protein PRA (chain, as listed by the source): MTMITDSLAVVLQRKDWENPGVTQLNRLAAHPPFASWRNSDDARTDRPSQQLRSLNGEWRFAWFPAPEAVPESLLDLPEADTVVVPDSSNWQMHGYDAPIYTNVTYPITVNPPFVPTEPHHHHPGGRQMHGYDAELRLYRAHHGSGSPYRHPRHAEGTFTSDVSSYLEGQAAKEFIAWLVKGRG
# Chain of fusion protein PRD (chain, as listed by the source): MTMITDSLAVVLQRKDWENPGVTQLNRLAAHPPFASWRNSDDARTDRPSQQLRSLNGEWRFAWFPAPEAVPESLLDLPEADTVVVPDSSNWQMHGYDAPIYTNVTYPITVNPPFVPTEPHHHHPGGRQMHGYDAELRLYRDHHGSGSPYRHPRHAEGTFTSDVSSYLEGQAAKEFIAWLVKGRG
# Chain of fusion protein PRT (chain, as listed by the source): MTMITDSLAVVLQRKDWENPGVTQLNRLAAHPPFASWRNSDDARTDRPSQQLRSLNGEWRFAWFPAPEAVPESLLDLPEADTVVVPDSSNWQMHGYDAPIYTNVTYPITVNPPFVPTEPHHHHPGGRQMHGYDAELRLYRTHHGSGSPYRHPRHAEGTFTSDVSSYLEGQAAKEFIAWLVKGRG
# Chain of fusion protein PRC (chain, as listed by the source): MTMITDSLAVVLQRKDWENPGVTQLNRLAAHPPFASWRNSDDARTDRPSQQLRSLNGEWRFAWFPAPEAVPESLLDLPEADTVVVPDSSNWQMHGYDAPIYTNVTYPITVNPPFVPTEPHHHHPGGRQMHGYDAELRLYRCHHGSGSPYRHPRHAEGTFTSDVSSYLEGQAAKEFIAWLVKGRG
# Chain of fusion protein PRS (chain, as listed by the source): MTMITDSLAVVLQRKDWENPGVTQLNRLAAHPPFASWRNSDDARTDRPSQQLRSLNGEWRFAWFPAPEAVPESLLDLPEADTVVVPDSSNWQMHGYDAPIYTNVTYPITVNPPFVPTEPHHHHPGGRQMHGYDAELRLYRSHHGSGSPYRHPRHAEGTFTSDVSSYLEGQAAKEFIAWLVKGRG
# Chain of fusion protein PRG (chain, as listed by the source): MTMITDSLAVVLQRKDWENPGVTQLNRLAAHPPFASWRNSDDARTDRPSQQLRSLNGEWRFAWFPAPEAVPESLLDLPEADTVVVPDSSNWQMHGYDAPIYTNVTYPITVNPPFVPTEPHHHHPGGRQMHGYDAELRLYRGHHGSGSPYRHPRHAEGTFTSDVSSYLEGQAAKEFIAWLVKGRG
# Chain of fusion protein PRI (chain, as listed by the source): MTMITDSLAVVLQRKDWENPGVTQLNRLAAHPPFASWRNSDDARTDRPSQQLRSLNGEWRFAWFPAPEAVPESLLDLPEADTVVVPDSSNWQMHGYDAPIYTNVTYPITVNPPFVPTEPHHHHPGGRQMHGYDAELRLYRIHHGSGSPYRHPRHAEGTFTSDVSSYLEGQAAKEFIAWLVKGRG
# Chain of fusion protein PRL (chain, as listed by the source): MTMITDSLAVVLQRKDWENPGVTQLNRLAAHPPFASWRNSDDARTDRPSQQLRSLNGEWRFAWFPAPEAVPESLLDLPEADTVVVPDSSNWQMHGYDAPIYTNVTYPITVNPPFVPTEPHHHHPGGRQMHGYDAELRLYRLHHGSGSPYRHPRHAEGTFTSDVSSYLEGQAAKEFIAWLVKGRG
# Chain of fusion protein PMT (chain, as listed by the source): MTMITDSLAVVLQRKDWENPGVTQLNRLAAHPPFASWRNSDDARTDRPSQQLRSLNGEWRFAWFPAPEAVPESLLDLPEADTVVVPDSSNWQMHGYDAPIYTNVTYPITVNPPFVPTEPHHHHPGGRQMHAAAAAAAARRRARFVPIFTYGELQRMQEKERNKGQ
# Chain of fusion protein PRR (chain, as listed by the source): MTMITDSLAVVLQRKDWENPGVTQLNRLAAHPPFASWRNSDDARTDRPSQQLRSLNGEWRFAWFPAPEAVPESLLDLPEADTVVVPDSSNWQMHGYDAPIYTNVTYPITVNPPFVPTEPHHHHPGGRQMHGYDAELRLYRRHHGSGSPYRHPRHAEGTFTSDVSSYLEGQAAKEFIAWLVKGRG
# Chain of fusion protein PRE (chain, as listed by the source): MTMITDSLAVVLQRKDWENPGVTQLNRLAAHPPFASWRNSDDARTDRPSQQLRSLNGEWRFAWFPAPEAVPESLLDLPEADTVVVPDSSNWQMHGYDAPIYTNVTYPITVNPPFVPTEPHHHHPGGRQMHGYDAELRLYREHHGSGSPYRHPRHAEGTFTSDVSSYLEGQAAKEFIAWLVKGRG
# Chain of fusion protein PRK (chain, as listed by the source): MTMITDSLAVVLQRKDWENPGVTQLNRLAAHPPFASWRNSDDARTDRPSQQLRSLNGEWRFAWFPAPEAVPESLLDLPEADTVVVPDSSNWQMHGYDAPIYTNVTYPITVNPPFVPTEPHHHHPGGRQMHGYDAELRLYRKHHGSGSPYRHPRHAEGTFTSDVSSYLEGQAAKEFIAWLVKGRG
# Chain of fusion protein PRW (chain, as listed by the source): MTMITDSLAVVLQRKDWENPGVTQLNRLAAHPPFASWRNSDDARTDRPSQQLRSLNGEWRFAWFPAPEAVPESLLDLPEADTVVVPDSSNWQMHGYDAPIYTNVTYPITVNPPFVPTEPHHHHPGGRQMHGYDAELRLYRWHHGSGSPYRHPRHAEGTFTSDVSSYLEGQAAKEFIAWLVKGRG
# Chain of fusion protein PRY (chain, as listed by the source): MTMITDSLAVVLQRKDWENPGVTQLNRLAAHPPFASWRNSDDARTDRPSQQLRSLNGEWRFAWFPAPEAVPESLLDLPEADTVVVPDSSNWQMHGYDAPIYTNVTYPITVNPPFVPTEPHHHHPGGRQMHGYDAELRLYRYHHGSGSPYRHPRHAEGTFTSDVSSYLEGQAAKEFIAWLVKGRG
# Chain of fusion protein PRH (chain, as listed by the source): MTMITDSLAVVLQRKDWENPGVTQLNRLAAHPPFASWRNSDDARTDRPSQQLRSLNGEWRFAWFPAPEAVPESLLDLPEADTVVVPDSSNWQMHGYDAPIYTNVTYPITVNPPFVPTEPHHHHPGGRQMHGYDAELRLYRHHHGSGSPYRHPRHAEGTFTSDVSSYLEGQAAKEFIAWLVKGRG
# Chain of fusion protein PRQ (chain, as listed by the source): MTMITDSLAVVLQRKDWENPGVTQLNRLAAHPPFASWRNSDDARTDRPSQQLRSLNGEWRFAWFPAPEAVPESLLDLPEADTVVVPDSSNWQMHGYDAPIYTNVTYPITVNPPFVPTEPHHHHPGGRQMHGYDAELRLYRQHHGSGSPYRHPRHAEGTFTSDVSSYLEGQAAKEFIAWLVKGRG
# Chain of fusion protein PRM (chain, as listed by the source): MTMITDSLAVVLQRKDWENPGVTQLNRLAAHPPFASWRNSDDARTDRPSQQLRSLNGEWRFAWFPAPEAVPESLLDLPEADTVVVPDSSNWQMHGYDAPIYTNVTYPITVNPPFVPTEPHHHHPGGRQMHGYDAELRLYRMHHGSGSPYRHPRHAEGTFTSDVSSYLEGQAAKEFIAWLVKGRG
# Chain of fusion protein PRN (chain, as listed by the source): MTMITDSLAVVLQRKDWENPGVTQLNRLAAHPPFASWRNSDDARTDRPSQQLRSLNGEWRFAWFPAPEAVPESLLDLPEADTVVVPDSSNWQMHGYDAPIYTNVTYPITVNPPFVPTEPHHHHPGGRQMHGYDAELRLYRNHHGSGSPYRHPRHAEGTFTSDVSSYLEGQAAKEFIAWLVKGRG
# Chain of fusion protein PRF (chain, as listed by the source): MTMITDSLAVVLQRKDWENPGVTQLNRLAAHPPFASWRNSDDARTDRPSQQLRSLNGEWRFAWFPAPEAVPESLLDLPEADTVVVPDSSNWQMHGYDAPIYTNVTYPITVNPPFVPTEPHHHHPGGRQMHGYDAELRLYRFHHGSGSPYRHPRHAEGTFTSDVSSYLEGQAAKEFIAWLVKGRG
Protein,relative cleavage efficiency (fusion protein PRW),relative cleavage efficiency (fusion protein PRP),relative cleavage efficiency (fusion protein PRY),relative cleavage efficiency (fusion protein PRG),relative cleavage efficiency (fusion protein PRS),relative cleavage efficiency (fusion protein PRR),relative cleavage efficiency (fusion protein PRC),relative cleavage efficiency (fusion protein PRN),relative cleavage efficiency (fusion protein PRH),relative cleavage efficiency (fusion protein PRF),relative cleavage efficiency (fusion protein PRK),relative cleavage efficiency (fusion protein PRD),relative cleavage efficiency (fusion protein PRA),relative cleavage efficiency (fusion protein PRT),relative cleavage efficiency (fusion protein PRQ),relative cleavage efficiency (fusion protein PRI),relative cleavage efficiency (fusion protein PRM),relative cleavage efficiency (fusion protein PRL),relative cleavage efficiency (fusion protein PRE),also measured
B1,less than 3%,less than 3%,6.2%,less than 3%,7.1%,< 3%,6.5%,< 3%,less than 3%,7.7%,< 3%,less than 3%,6%,< 3%,less than 3%,< 3%,< 3%,less than 3%,less than 3%,"relative cleavage efficiency: Motilin (Arg^140-Phe^141) (fusion protein PRMT): 22; by-product AR-motilin (motilin = 100) [1]: at 3.5 and 16% with PMT6D; by-product RRAR-motilin (motilin = 100) [1]: at 3.5 and 16% with PMT6D; motilin released [1]: Motilin was released at 280, 250 and 370 µg/mL from the motilin fusion proteins PMT, PMT6D and PMT7D, respectively; by-product RRAR-motilin [2]: no peak for RRAR-motilin was detected with PMT7D; motilin released [2]: Motilin was released at 280, 250 and 370 µg/mL from the motilin fusion proteins PMT, PMT6D and PMT7D, respectively; amount of motilin released, against PRMT (fusion protein PMT): the amount of motilin released from PMT was 3.5 times higher than from PRMT; by-product AR-motilin (motilin = 100) (fusion protein PMT): By-products were yielded at 2.8 and 33% with PMT; by-product RRAR-motilin (motilin = 100) (fusion protein PMT): By-products were yielded at 2.8 and 33% with PMT; digestion (SDS-PAGE), co-expressed inclusion bodies (fusion protein PMT): reaction of 1440 minutes, i.e. 24 hours, caused virtually complete digestion of the fusion protein PMT; motilin released (fusion protein PMT): Motilin was released at 280, 250 and 370 µg/mL from the motilin fusion proteins PMT, PMT6D and PMT7D, respectively; relative cleavage efficiency: Motilin (Arg^143-Phe^144) (fusion protein PMT; scale: relative): 78; relative cleavage efficiency: RRAR-motilin (Arg^139-Arg^140) (fusion protein PMT; scale: relative): 24"
B2,less than 3%,less than 3%,< 3%,less than 3%,8.7%,4.6%,11%,3.5%,less than 3%,4.1%,4.5%,less than 3%,8.4%,3%,less than 3%,3.1%,4.6%,less than 3%,less than 3%,"cleavage (HPLC, mass analysis) [3]: PCT was cleaved at Arg^139-Arg^140. Arg^141-Ala^142 and Arg^143-Cys^144 by D97H, releasing RRAR-CT, AR-CT and human calcitonin precursor"
B3,less than 3%,less than 3%,3.2%,less than 3%,9.1%,< 3%,3.9%,< 3%,less than 3%,4.7%,< 3%,less than 3%,7.1%,< 3%,less than 3%,< 3%,< 3%,less than 3%,less than 3%,"by-products [4]: No by-products were released by cleavage at other sites; release of human adrenocorticotropic hormone(1-24), against wild-type OmpT protease [4]: released human adrenocorticotropic hormone(1-24) at 2.9 times compared to wild-type OmpT protease"
